# Target: CTLA-4 Ig functionalized with GzmB substrate (UniProt P16410)
# Sequence (P16410 38-161): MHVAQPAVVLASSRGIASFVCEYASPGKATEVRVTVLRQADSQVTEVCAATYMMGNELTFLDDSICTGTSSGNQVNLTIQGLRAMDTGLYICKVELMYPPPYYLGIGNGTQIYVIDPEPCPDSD
# matrix metalloproteinase 2, sequence (P08253 110-660): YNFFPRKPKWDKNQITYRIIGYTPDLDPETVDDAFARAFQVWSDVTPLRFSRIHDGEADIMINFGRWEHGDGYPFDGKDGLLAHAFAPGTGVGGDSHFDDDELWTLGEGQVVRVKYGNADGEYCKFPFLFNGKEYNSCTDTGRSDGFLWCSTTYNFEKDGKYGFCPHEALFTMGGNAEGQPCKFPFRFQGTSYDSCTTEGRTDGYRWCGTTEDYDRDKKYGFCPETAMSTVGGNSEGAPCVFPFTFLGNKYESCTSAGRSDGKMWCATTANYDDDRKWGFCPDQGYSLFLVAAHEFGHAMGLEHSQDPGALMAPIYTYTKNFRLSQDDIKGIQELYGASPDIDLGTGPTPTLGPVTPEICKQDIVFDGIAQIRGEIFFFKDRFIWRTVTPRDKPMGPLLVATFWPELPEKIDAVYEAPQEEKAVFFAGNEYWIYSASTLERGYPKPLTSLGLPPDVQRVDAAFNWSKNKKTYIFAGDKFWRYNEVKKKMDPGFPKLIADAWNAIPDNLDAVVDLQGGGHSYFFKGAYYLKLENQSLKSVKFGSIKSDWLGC
# mannose-associated serine protease 1, sequence (P48740 20-699): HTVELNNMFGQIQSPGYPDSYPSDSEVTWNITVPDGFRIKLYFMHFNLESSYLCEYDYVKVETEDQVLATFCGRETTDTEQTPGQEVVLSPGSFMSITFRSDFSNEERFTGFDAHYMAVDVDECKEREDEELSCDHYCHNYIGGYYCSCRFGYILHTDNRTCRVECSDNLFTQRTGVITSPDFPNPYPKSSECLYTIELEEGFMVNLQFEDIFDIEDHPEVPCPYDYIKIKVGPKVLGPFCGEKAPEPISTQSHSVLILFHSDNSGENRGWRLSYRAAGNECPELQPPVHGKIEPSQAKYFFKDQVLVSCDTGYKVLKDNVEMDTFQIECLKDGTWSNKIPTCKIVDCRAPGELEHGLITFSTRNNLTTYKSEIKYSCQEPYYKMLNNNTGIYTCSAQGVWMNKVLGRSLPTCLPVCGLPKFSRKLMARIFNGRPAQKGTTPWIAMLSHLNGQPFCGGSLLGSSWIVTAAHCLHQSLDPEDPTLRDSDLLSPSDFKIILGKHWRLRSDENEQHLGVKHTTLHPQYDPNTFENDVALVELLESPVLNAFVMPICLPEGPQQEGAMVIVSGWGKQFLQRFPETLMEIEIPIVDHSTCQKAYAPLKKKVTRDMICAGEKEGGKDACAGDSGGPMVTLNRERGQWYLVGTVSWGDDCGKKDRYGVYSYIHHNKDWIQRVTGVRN
row,Substance,in vitro cleavage assay
1,Cathepsin B,"no cross-cleavage by matrix, complement, or immune proteases"
2,granzyme B,modified CTLA-4 Ig demonstrated specific cleavage by GzmB
3,mannose-associated serine protease 1,"no cross-cleavage by matrix, complement, or immune proteases"
4,matrix metalloproteinase 2,"no cross-cleavage by matrix, complement, or immune proteases"
5,matrix metalloproteinase 9,"no cross-cleavage by matrix, complement, or immune proteases"
6,matrix metalloproteinase 15,"no cross-cleavage by matrix, complement, or immune proteases"
